The values below come from patent US20190330347A1 (TAIZHOU HANZHONG BIOPHARMACEUTICS, published 2019).

Assay [1] has as its target T1, PD-1-his antigen (UniProt Q15116 25-167, limits assumed).
T1 construct: Human is implied, since cynomolgus and rat PD1 are called non-human antigens
Nature of the assay: ELISA on coated PD-1-his; antibody at 1:3 dilution of 2 µg/ml. On the procedure:
(§1) An ELISA plate was coated with PD-1-his antigen in a concentration of 0.25 μg/ml (100 μl per well) by incubation at 4° C. overnight.
(§2) The ELISA plate coated with the PD-1-his antigen was blocked with 1% BSA in the PBS buffer at 37° C. for 2 hours and washed with 1 xPBST buffer containing 1% Tween-20 for three times, with gently patting to dryness.
(§3) The absorbance of solution in each well was measured with the microplate reader at a wavelength of 450 nm.

Assay [2] has as its target T1, PD-1-his antigen. Nature of the assay: ELISA on coated PD-1-his. How it is done:
as §1, §2, §3

Assay [3] has as its target T2, PD1 on the surface of cell membrane (293T cell line stably transfected with PD1) (UniProt Q15116 25-288, limits assumed).
T2 construct: whole, on cells
Kind of assay: FACS on 293T cells stably transfected with PD1. How it is done:
Step f) Each group was centrifuged at 4000 r/min at a low temperature for 5 minutes, followed by washing with the PBS buffer once and adding 200 μl PBS for suspending, thus obtaining a suspension for on-line detection.

For assay [4], the target named is T2, PD1 on the surface of cell membrane …. Nature of the assay: FACS competition on 293T-PD1 cells, competitor PDL1-mFc 20 nM.
In assay [5] the target is T3, PD-1-hIgGFc antigen (UniProt Q15116 25-167, limits assumed). Nature of the assay: competitive ELISA on coated PD-1-hIgGFc, competitor PDL2-his tag. On the procedure:
A 96-well ELISA plate was coated with PD-1-hIgGFc antigen in a concentration of 1.0 μg/ml (100 μl per well) by incubation at 4° C. overnight.
After the 96-well ELISA plate was washed with the PBST buffer for five times and gently patted to dryness, HRP-conjugated monoclonal mouse anti-his tag as a secondary antibody in 1:750 dilution (50 μl per well) was added for incubation at 37° C. for 1 hour.

Assay [6] deals with T4, PD1-hFc of Cynomolgus monkey (Macaca fascicularis) (Cynomolgus monkey (Macaca fascicularis), UniProt B0LAJ3 25-170).
T4 construct: also called PD1 of Cynomolgus monkey
T4 sequence (B0LAJ3 entry or part of it limits assumed, form in doubt): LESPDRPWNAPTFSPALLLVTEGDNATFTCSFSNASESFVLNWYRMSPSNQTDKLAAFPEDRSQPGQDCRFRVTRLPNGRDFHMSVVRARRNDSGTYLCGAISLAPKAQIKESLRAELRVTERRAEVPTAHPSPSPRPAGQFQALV
Nature of the assay: ELISA on coated cynomolgus PD1-hFc.

Another assay addresses serum complement C1q (UniProt P02745 23-245; P02746 28-253; P02747 29-245). Nature of the assay: Fortebio Octet BLI, H8L2 on FAB2G sensor, C1q in solution. The text has this:
Serum complement C1q can bind to the Fc fragment of IgG antibody, thus involving in complement-dependent cytotoxicity (CDC). The safety and efficacy of a therapeutic monoclonal antibody will be affected by the binding ability of the monoclonal antibody to the serum complement C1q.
After binding for 120 seconds, the PBST buffer was applied to the FAB2G sensor for disassociation, which was kept for 180 seconds. The data was collected with the Fortebio Data Acquisition 7.0 software and analyzed with the Fortebio Data Analysis 7.0 software.

For assay [7], the target named is T3, PD-1-hIgGFc antigen. Kind of assay: competitive ELISA on coated PD-1-hIgGFc, competitor PDL1-mIgG2aFc. How it is done:
A 96-well ELISA plate was coated with PD-1-hIgGFc antigen in a concentration of 0.5 μg/ml (50 μl per well) by incubation at 4° C. overnight.

Another assay deals with T5, FcγRIIIa-Biotin (UniProt P08637 17-208, limits assumed, biotin (site not stated)).
T5 construct: also called CD16a
T5 sequence (P08637 17-208 limits assumed): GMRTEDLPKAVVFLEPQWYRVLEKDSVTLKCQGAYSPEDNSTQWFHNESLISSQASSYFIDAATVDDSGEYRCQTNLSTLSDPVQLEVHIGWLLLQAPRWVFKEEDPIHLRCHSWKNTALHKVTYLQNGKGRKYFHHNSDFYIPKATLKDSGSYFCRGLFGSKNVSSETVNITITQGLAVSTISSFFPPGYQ
Nature of the assay: Fortebio Octet BLI, FcγRIIIa-Biotin on SA sensor. The source says:
The data was collected with the Fortebio Data Acquisition 7.0 software and analyzed with the Fortebio Data Analysis 7.0 software.

T2 sequence (Q15116 25-288 limits assumed): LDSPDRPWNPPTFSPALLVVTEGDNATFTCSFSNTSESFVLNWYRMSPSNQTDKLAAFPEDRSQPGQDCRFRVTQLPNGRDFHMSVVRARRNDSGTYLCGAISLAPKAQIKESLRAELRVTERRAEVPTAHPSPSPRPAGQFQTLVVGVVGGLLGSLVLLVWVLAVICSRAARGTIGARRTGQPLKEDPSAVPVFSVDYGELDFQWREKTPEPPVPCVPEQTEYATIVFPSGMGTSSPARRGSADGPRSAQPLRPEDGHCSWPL
T1 sequence (Q15116 25-167 limits assumed): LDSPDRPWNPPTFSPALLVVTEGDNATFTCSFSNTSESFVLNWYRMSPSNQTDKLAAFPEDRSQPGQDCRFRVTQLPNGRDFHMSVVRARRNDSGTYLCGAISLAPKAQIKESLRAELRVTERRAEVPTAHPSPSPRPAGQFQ
T3 sequence (Q15116 25-167 limits assumed): as above
Chain of serum complement C1q (P02745 23-245 limits assumed, chain 1 of 3): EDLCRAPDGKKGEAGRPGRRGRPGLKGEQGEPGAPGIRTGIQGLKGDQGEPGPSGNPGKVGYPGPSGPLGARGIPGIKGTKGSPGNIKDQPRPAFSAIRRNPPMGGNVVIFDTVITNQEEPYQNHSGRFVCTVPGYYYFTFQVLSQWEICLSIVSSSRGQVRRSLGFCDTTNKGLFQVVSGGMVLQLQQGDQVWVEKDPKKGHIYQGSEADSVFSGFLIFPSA
Chain of serum complement C1q (P02746 28-253 limits assumed, chain 2 of 3): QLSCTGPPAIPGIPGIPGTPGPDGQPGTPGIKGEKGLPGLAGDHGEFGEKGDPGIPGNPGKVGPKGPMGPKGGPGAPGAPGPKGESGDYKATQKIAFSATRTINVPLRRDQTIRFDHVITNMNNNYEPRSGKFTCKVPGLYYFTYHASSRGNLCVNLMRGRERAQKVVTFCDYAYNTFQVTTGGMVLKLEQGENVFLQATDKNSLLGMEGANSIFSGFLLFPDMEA
Chain of serum complement C1q (P02747 29-245 limits assumed, chain 3 of 3): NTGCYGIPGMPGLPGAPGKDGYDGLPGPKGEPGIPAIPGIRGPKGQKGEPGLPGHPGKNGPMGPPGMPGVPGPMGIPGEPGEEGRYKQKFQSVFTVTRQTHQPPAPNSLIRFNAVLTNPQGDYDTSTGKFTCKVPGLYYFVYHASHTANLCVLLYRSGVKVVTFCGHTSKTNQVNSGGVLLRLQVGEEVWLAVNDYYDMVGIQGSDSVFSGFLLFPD

B1: humanized H8L2 antibody (IgG-like antibody H8L2 against PD-1) (antibody)
heavy: EVQLVQSGGGLVQPGGSLKLSCAASGFTFSSYGMSWVRQAPGKGLDWVATISGGGRDTYYPDSVKGRFTISRDNSKNNLYLQMNSLRAEDTALYYCARQKGEAWFAYWGQGTLVTVSSASTKGPSVFPLAPCSRSTSESTAALGCLVKDYFPEPVTVSWNSGALTSGVHTFPAVLQSSGLYSLSSVVTVPSSSLGTKTYTCNVDHKPSNTKVDKRVESKYGPPCPPCPAPEFLGGPSVFLFPPKPKDTLMITRTPEVTCVVVDVSQEDPEVQFNWYVDGVEVHNAKTKPREEQFNSTYRVVSVLTPLHQDWLNGKEYKCKVSNKGLPSSIEKTISKAKGQPREPQVYTLPPSQEEMTKNQVSLTCLVKGFYPSDIAVEWESNGQPENNYKTTPPVLDSDGSFFLYSRLTVDKSRWQEGNVFSCSVMHEALHAHYTQKSLSLSLGK
light: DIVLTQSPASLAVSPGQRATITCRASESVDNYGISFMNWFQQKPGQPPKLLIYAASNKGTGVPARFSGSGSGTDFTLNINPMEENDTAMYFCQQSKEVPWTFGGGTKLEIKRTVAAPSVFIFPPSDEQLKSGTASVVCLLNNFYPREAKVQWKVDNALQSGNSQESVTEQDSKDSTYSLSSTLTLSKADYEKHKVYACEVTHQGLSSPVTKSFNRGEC
notes: Expressed in 293 cells and purified on protein A; also called 18A10 H8L2
For B1, in the assay with PD-1-his antigen [1], the “absorbance at 450 nm” value stood at 1.76. Besides, the concentration giving a half-maximal response (EC50) came to 0.04 nM in the assay with PD-1-his antigen [2]; 3.4 nM in assay [3]; 19.6 nM in assay [4]; 1.83 nM with PD-1-hIgGFc antigen [5]; 0.219 nM in assay [6]; 0.474 nM in the assay with PD-1-hIgGFc antigen [7]. Besides, the results for the binding result with serum complement C1q and with FcγRIIIa-Biotin were “no binding (tested: 3.13 to 200 nM)” and “no binding (tested: 4000 nM)”, respectively.
